According to article PMC5778702:

Target: pCMV-HA-H (HA-H), hemagglutinin (H) protein of Peste des petits ruminants virus with HA tag (Peste des petits ruminants virus)
Assay: SPR; […]; Biacore 3000, 25 °C, HBS-EP (10 mM HEPES pH 7.4, 150 mM NaCl, 3 mM EDTA, 0.005% P20); […]

With “pCMV-HA-F (HA-F), fusion (F) protein of Peste des petits ruminants virus with HA tag (natural protein)” the Kd was 0.0191 µM, the koff was 0.000937 s⁻¹ and the kon was 49100 M⁻¹ s⁻¹.

With “pCMV-HA-HRA (HA-HRA), heptad repeat region A of the PPRV F protein with HA tag (domain or fragment)” the Kd was 108 µM, the koff was 0.00414 s⁻¹ and the kon was 38.2 M⁻¹ s⁻¹.

For “pCMV-HA-HRB (HA-HRB), heptad repeat region B of the PPRV F protein with HA tag (domain or fragment)”, the Kd was 0.26 µM, the koff was 0.00299 s⁻¹ and the kon was 11500 M⁻¹ s⁻¹.
